Article PMC10266979

Assays:
[1] = target: Recombinant neuraminidase (N2) from H3N2 A/Tanzania/205/2010 (influenza A virus H3N2 A/Tanzania/205/2010); test: cryo-EM structure
[2] = target: Recombinant neuraminidase (N2) from H3N2 A/Tanzania/205/2010 with S245N and S247T mutations (influenza A virus H3N2 A/Tanzania/205/2010); test: cryo-EM structure

Substance | stoichiometry N [1] | stoichiometry N [2]
Recombinant neuraminidase (N2) from H3N2 A/Tanzania/205/2010 (enzyme) | 4 | –
Recombinant neuraminidase (N2) from H3N2 A/Tanzania/205/2010 with S245N and S247T mutations (enzyme) | – | 4
